In patent US20150315267A1:

Target: soluble, freshly prepared monomeric Aβ(1-40) (UniProt P05067)
Assay: capture ELISA, antibody immobilized, soluble monomeric Aβ(1-40) in solution

3D6 (antibody)
EC50: 1 nM
